Experiments:
[1] = target: HIV-1 BaL Env trimer (cleaved gp120/gp41) on Gag-Env VLPs (HIV-1 strain BaL); experiment: native gel or EMSA
[2] = target: HIV-1 JR-FL Env trimer (cleaved gp120/gp41) from JR-FL Gag-Env VLPs (HIV-1 strain JR-FL); experiment: native gel or EMSA

Substance	stoichiometry N [1]	stoichiometry N [2]
HIV-1 BaL Env trimer (cleaved gp120/gp41) on Gag-Env VLPs (complex)	3	–
HIV-1 JR-FL Env trimer (cleaved gp120/gp41) from JR-FL Gag-Env VLPs (complex)	–	3
